From patent US20150344570A1 (published 2015)

T1: FcgRIIa R (human, UniProt P12318 34-217)
T1 construct: extracellular domain; also called FcγRIIa R; FcγRIIa type R
T1 sequence (looked up): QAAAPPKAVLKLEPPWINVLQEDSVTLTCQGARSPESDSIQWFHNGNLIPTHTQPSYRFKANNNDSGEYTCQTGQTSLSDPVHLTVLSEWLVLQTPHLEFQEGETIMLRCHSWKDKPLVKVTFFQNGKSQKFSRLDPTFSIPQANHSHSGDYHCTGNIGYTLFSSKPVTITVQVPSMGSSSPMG

T2: FcgRIIa H (human, UniProt P12318 34-217)
T2 construct: extracellular domain; also called FcγRIIa H; FcγRIIa type H
T2 sequence (looked up): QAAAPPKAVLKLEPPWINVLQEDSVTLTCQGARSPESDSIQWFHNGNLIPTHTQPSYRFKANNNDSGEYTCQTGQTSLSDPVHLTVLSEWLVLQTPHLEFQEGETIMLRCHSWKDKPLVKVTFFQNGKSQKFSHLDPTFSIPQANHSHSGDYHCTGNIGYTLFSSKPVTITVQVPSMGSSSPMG

T3: FcgRIIb (human, UniProt P31994 43-217)
T3 construct: extracellular domain; also called FcγRIIb; CD32B
T3 sequence (looked up): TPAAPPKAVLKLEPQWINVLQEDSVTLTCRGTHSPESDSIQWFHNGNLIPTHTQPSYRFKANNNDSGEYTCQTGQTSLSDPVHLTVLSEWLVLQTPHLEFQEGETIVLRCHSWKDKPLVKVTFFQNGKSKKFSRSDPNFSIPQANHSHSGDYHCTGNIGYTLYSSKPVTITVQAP

B1: GpH7-Kn032/GpH7-Hl032/GpL16-k0 (antibody, human IgG1, kappa)
heavy 1: QVQLVQSGAEVKKPGASVTVSCKASGYTFTDYEMHWIRQPPGEGLEWIGAIDPKTGDTAYSESFQDRVTLTADKSTSTAYMELSSLTSEDTAVYYCTRFYSYTYWGQGTLVTVSSASTKGPSVFPLAPSSKSTSGGTAALGCLVKDYFPEPVTVSWNSGALTSGVHTFPAVLQSSGLYSLSSVVTVPSSSLGTQTYICNVNHKPSNTKVDKKVEPKSCDKTHTCPPCPAPELLGGPDVFLFPPKPKDTLMISRTPEVTCVVVDVSHEDPEVKFNWYVDGVEVHNAKTKPREEQYNSTYRVVSVLTVLHQDWLNGKEYKCKVSNKALPLPEEKTISKAKGQPREPQVCTLPPSRDELTKNQVSLWCLVKGFYPSDIAVEWESNGQPENNYKTTPPVLDSDGSFFLYSKLTVDKSRWQQGNVFSCSVMHEALHNHYTQKSLSLSP
heavy 2: QVQLVQSGAEVKKPGASVTVSCKASGYTFTDYEMHWIRQPPGEGLEWIGAIDPKTGDTAYSESFQDRVTLTADKSTSTAYMELSSLTSEDTAVYYCTRFYSYTYWGQGTLVTVSSASTKGPSVFPLAPSSKSTSGGTAALGCLVKDYFPEPVTVSWNSGALTSGVHTFPAVLQSSGLYSLSSVVTVPSSSLGTQTYICNVNHKPSNTKVDKKVEPKSCDKTHTCPPCPAPELLGGPDVFLFPPKPKDTLMISRTPEVTCVVVDVSHEDPEVKFNWYVDGVEVHNAKTKPREEQYNSTYRVVSVLTVLHQDWLNGKEYKCKVSNKALPLPEEKTISKAKGQPREPQVYTLPPSRCELTKNQVSLSCAVKGFYPSDIAVEWESNGQPENNYKTTPPVLDSDGSFFLVSKLTVDKSRWQQGNVFSCSVMHEALHNHYTQKSLSLSP
light: DIVMTQSPLSLPVTPGEPASISCQASESLVHSNRNTYLHWYLQKPGQSPQLLIYKVSNRFSGVPDRFSGSGSGTDFTLKISRVEAEDVGVYYCSQNTHVPPTFGQGTKVEIERTVAAPSVFIFPPSDEQLKSGTASVVCLLNNFYPREAKVQWKVDNALQSGNSQESVTEQDSKDSTYSLSSTLTLSKADYEKHKVYACEVTHQGLSSPVTKSFNRGEC
notes: also called Kn032/Hl032
B2: GpH7-Kn037/GpH7-Hl036/GpL16-k0 (antibody, human IgG1, kappa)
heavy 1: QVQLVQSGAEVKKPGASVTVSCKASGYTFTDYEMHWIRQPPGEGLEWIGAIDPKTGDTAYSESFQDRVTLTADKSTSTAYMELSSLTSEDTAVYYCTRFYSYTYWGQGTLVTVSSASTKGPSVFPLAPSSKSTSGGTAALGCLVKDYFPEPVTVSWNSGALTSGVHTFPAVLQSSGLYSLSSVVTVPSSSLGTQTYICNVNHKPSNTKVDKKVEPKSCDKTHTCPPCPAPELLAGPDVFLFPPKPKDTLMISRTPEVTCVVVDVSHEDPEVKFNWYVDGVEVHNAKTKPREEQYNSTYRVVSVLTVLHQDWLNGKEYKCKVSNKALPAPEEKTISKAKGQPREPQVCTLPPSRDELTKNQVSLWCLVKGFYPSDIAVEWESNGQPENNYKTTPPVLDSDGSFFLYSKLTVDKSRWQQGNVFSCSVMHEALHNHYTQKSLSLSP
heavy 2: QVQLVQSGAEVKKPGASVTVSCKASGYTFTDYEMHWIRQPPGEGLEWIGAIDPKTGDTAYSESFQDRVTLTADKSTSTAYMELSSLTSEDTAVYYCTRFYSYTYWGQGTLVTVSSASTKGPSVFPLAPSSKSTSGGTAALGCLVKDYFPEPVTVSWNSGALTSGVHTFPAVLQSSGLYSLSSVVTVPSSSLGTQTYICNVNHKPSNTKVDKKVEPKSCDKTHTCPPCPAPELLAGPDVFLFPPKPKDTLMISRTPEVTCVVVDVSHEDPEVKFNWYVDGVEVHNAKTKPREEQYNSTYRVVSVLTVLHQDWLNGKEYKCKVSNKALPAPEEKTISKAKGQPREPQVYTLPPSRCELTKNQVSLSCAVKGFYPSDIAVEWESNGQPENNYKTTPPVLDSDGSFFLVSKLTVDKSRWQQGNVFSCSVMHEALHNHYTQKSLSLSP
light: DIVMTQSPLSLPVTPGEPASISCQASESLVHSNRNTYLHWYLQKPGQSPQLLIYKVSNRFSGVPDRFSGSGSGTDFTLKISRVEAEDVGVYYCSQNTHVPPTFGQGTKVEIERTVAAPSVFIFPPSDEQLKSGTASVVCLLNNFYPREAKVQWKVDNALQSGNSQESVTEQDSKDSTYSLSSTLTLSKADYEKHKVYACEVTHQGLSSPVTKSFNRGEC
notes: also called Kn037/Hl036
B3: GpH7-Kn045/GpH7-Hl055/GpL16-k0 (antibody, human IgG1, kappa)
heavy 1: QVQLVQSGAEVKKPGASVTVSCKASGYTFTDYEMHWIRQPPGEGLEWIGAIDPKTGDTAYSESFQDRVTLTADKSTSTAYMELSSLTSEDTAVYYCTRFYSYTYWGQGTLVTVSSASTKGPSVFPLAPSSKSTSGGTAALGCLVKDYFPEPVTVSWNSGALTSGVHTFPAVLQSSGLYSLSSVVTVPSSSLGTQTYICNVNHKPSNTKVDKKVEPKSCDKTHTCPPCPAPEYYAGPSVFLFPPKPKDTLMISRTPEVTCVVVDVSDEDPEVKFNWYVDGVEVHNAKTKPREEQYNATYRVVSVLTVLHQDWLNGKEYKCKVSNKALPAPIEKTISKAKGQPREPQVCTLPPSRDELTKNQVSLWCLVKGFYPSDIAVEWESNGQPENNYKTTPPVLDSDGSFFLYSKLTVDKSRWQQGNVFSCSVMHEALHNHYTQKSLSLSP
heavy 2: QVQLVQSGAEVKKPGASVTVSCKASGYTFTDYEMHWIRQPPGEGLEWIGAIDPKTGDTAYSESFQDRVTLTADKSTSTAYMELSSLTSEDTAVYYCTRFYSYTYWGQGTLVTVSSASTKGPSVFPLAPSSKSTSGGTAALGCLVKDYFPEPVTVSWNSGALTSGVHTFPAVLQSSGLYSLSSVVTVPSSSLGTQTYICNVNHKPSNTKVDKKVEPKSCDKTHTCPPCPAPELLAGPDVFLFPPKPKDTLMISRTPEVTCVVVDVSHEDPEVKFNWYVDGVEVHNAKTKPREELYNSTYRVVSVLTVLHQDWLNGKEYKCKVSNKALPMPEEKTISKAKGQPREPQVYTLPPSRCELTKNQVSLSCAVKGFYPSDIAVEWESNGQPENNYKTTPPVLDSDGSFFLVSKLTVDKSRWQQGNVFSCSVMHEALHNHYTQKSLSLSP
light: DIVMTQSPLSLPVTPGEPASISCQASESLVHSNRNTYLHWYLQKPGQSPQLLIYKVSNRFSGVPDRFSGSGSGTDFTLKISRVEAEDVGVYYCSQNTHVPPTFGQGTKVEIERTVAAPSVFIFPPSDEQLKSGTASVVCLLNNFYPREAKVQWKVDNALQSGNSQESVTEQDSKDSTYSLSSTLTLSKADYEKHKVYACEVTHQGLSSPVTKSFNRGEC
notes: Heterodimerized antibody: knob chain L234Y/L235Y/G236A/H268D/S298A, hole chain G236A/S239D/Q295L/A330M/I332E; also called Kn045/Hl055
B4: GpH7-Kn045/GpH7-Hl048/GpL16-k0 (antibody, human IgG1, kappa)
heavy 1: QVQLVQSGAEVKKPGASVTVSCKASGYTFTDYEMHWIRQPPGEGLEWIGAIDPKTGDTAYSESFQDRVTLTADKSTSTAYMELSSLTSEDTAVYYCTRFYSYTYWGQGTLVTVSSASTKGPSVFPLAPSSKSTSGGTAALGCLVKDYFPEPVTVSWNSGALTSGVHTFPAVLQSSGLYSLSSVVTVPSSSLGTQTYICNVNHKPSNTKVDKKVEPKSCDKTHTCPPCPAPEYYAGPSVFLFPPKPKDTLMISRTPEVTCVVVDVSDEDPEVKFNWYVDGVEVHNAKTKPREEQYNATYRVVSVLTVLHQDWLNGKEYKCKVSNKALPAPIEKTISKAKGQPREPQVCTLPPSRDELTKNQVSLWCLVKGFYPSDIAVEWESNGQPENNYKTTPPVLDSDGSFFLYSKLTVDKSRWQQGNVFSCSVMHEALHNHYTQKSLSLSP
heavy 2: QVQLVQSGAEVKKPGASVTVSCKASGYTFTDYEMHWIRQPPGEGLEWIGAIDPKTGDTAYSESFQDRVTLTADKSTSTAYMELSSLTSEDTAVYYCTRFYSYTYWGQGTLVTVSSASTKGPSVFPLAPSSKSTSGGTAALGCLVKDYFPEPVTVSWNSGALTSGVHTFPAVLQSSGLYSLSSVVTVPSSSLGTQTYICNVNHKPSNTKVDKKVEPKSCDKTHTCPPCPAPELLAGPDVFLFPPKPKDTLMISRTPEVTCVVVDVSHEDPEVKFNWYVDGVEVHNAKTKPREEQYNSTYRVVSVLTVLHQDWLNGKEYKCKVSNKALPKPEEKTISKAKGQPREPQVYTLPPSRCELTKNQVSLSCAVKGFYPSDIAVEWESNGQPENNYKTTPPVLDSDGSFFLVSKLTVDKSRWQQGNVFSCSVMHEALHNHYTQKSLSLSP
light: DIVMTQSPLSLPVTPGEPASISCQASESLVHSNRNTYLHWYLQKPGQSPQLLIYKVSNRFSGVPDRFSGSGSGTDFTLKISRVEAEDVGVYYCSQNTHVPPTFGQGTKVEIERTVAAPSVFIFPPSDEQLKSGTASVVCLLNNFYPREAKVQWKVDNALQSGNSQESVTEQDSKDSTYSLSSTLTLSKADYEKHKVYACEVTHQGLSSPVTKSFNRGEC
notes: Heterodimerized antibody: knob chain L234Y/L235Y/G236A/H268D/S298A, hole chain G236A/S239D/A330K/I332E; also called Kn045/Hl048

Columns and labels:
Test in all cases: SPR (Biacore); KD of GpH7-Kn033/GpH7-Hl033/GpL16-k0 for this FcγR divided by KD of this antibody
[1] = target: T4, FcgRIa (human, UniProt P12314 16-292)
T4 construct: extracellular domain; also called FcγRIa; FcγRI
Procedure: (§1) These antibodies were assessed for the binding activity to each FcγR according to the method described in Reference Example 2.
(§2) Analysis of interaction between objective antibody and the FcγR was carried out using Biacore T100 (GE Healthcare). HBS-EP+ (GE Healthcare) was used as the running buffer, and the measurement temperature was set to 25° C. Chips produced by immobilizing the antigen peptide by the amine coupling method to a Series S Sencor Chip CM5 (GE Healthcare), or alternatively, chips produced by allowing preliminarily biotinylated antigen peptides to interact with and immobilize onto a Series S Sensor Chip SA (certified) (GE Healthcare) were used. Antibodies of interest were captured onto an antigen peptide-immobilized chip, and allowed to interact to each FcγR diluted with running buffer. To regenerate and repeatedly use the chip, the antibodies captured on the chip were washed off by reacting 10 mM glycine-HCl, pH 1.5.

[2] = target: T1, FcgRIIa R
Procedure: as §1, §2

[3] = target: T2, FcgRIIa H
Procedure: as §1, §2

[4] = target: T5, FcgRIIIa V (human, UniProt P08637 17-208)
T5 construct: extracellular domain; also called FcγRIIIa V; FcγRIIIaV
Procedure: as §1, §2

[5] = target: T3, FcgRIIb
Procedure: as §1, §2

[6] = target: T6, FcgRIIIa F (human, UniProt P08637 17-208)
T6 construct: extracellular domain; also called FcγRIIIa F; FcγRIIIaF
Procedure: as §1, §2

T5 sequence (P08637 17-208 F176V limits assumed): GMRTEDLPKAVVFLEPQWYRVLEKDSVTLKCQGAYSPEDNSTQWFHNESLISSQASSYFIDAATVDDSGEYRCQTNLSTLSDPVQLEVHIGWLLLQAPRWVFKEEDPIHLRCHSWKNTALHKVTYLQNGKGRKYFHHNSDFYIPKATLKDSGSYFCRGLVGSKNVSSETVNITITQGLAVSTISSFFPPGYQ
T4 sequence (P12314 16-292): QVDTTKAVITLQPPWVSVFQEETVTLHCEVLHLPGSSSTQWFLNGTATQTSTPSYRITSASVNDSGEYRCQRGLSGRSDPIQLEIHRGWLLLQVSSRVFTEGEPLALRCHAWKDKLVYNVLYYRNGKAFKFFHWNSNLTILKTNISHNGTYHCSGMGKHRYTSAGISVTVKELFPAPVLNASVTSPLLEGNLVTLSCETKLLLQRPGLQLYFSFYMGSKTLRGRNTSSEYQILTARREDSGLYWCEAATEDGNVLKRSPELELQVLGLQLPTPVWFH
T6 sequence (P08637 17-208): as the sequence (P08637 17-208 F176V limits assumed) above, with V160F counted along it

Binder	KD ratio [1] [fold]	KD ratio [2] [fold]	KD ratio [3] [fold]	KD ratio [4] [fold]	KD ratio [5] [fold]	KD ratio [6] [fold]
B1	24	3	1.2	182	8.2	381
B2	6	43	22	84	16	161
B3	3.7	56	21	300	15	985
B4	3.7	154	52	170	34	419
